Experiment [1] addresses T1, recombinant human EGFR (Sino Biological Inc) (human, UniProt P00533 25-645).
T1 construct: Bought reagent; also called epidermal growth factor receptor
Briefly: BLI (Octet RED96), comparison of KD values. On the procedure: (§1) Briefly, each parental mAb and FIT-Ig was characterized for affinities and binding kinetics by Octet®RED96 biolayer interferometry (Pall FortéBio LLC). Each parental mAb and FIT-Ig were captured by Anti-Human IgG Fc Capture (AHC) Biosensors (Pall) at a concentration of 100 nM for 30 seconds. Sensors were then dipped into running buffer (1X, pH 7.2, PBS, 0.05% Tween 20, 0.1% BSA) for 60 seconds to check baseline. Binding was measured by dipping sensors into […] recombinant human PD-L1 (Novoprotein) or recombinant human EGFR (Sino Biological Inc) both ranging from 1 nM to 200 nM. Dissociation was followed by dipping sensors into running buffer for 1200 seconds. The association and dissociation curves were fitted to a 1:1 Langmuir binding model using ForteBio Data Analysis software (Pall).

Experiment [2] addresses T2, recombinant human PD-L1 (Novoprotein) (human, UniProt Q9NZQ7 19-239, limits assumed).
T2 construct: Bought reagent; also called Programmed Death Ligand 1; CD274
Briefly: BLI (Octet RED96), comparison of KD values. On the procedure: as §1
(In general: BLI is a label-free optical method that tracks binding on a fibre tip over time.)

The target in experiment [3] is T1, recombinant human EGFR (Sino Biological …). Briefly: BLI (Octet RED96), FIT-Ig captured on anti-human IgG Fc sensors, antigen in solution, 1:1 fit. On the procedure:
as §1

Experiment [4] addresses T2, recombinant human PD-L1 (Novoprotein). The description is as above. As for the experimental part: as §1
Experiment [5] has the same target. Briefly: BLI (Octet RED96), antibody captured on anti-human IgG Fc sensors, antigen in solution, 1:1 fit. As for the experimental part: as §1

T2 sequence (Q9NZQ7 19-239 limits assumed): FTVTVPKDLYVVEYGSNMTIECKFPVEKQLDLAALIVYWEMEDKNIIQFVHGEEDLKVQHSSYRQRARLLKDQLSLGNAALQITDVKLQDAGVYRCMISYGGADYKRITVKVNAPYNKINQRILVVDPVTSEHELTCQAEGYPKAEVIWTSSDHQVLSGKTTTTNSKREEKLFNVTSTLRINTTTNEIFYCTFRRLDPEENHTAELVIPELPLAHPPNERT

B1: EGFR/PD-L1 FIT-Ig6 (bispecific antibody, human IgG1, kappa)
heavy: not shown
chain: QVQLQESGPGLVKPSETLSLTCTVSGGSVSSGDYYWTWIRQSPGKGLEWIGHIYYSGNTNYNPSLKSRLTISIDTSKTQFSLKLSSVTAADTAIYYCVRDRVTGAFDIWGQGTMVTVSSASTKGPSVFPLAPSSKSTSGGTAALGCLVKDYFPEPVTVSWNSGALTSGVHTFPAVLQSSGLYSLSSVVTVPSSSLGTQTYICNVNHKPSNTKVDKKVEPKSC
light: not shown
notes: Six-chain hexamer with no linkers; Human IgG1 Fc
On to B1, for which the “KD lower than that of the parental panitumumab” value in experiment [1] is around 25%. The “KD higher than that of the parental mAb 3G10” value in experiment [2] was around 30%. In addition, in experiment [3], the Kd came to 0.491 nM, the koff was determined as 0.000107 s⁻¹ and the kon was 218000 M⁻¹ s⁻¹. In experiment [4], the Kd is 16.3 nM, the koff amounted to 0.0144 s⁻¹ and the kon amounted to 886000 M⁻¹ s⁻¹.

B2: anti-PD-L1 monoclonal antibody 3G10 (parental) (antibody, V domains shown)
VH: QVQLVQSGAEVKKPGASVKVSCKASGYTFTDYGFSWVRQAPGQGLEWMGWITAYNGNTNYAQKLQGRVTMTTDTSTSTVYMELRSLRSDDTAVYYCARDYFYGMDVWGQGTTVTVSS
VL: EIVLTQSPATLSLSPGERATLSCRASQSVSSYLVWYQQKPGQAPRLLIYDASNRATGIPARFSGSGSGTDFTLTISSLEPEDFAVYYCQQRSNWPRTFGQGTKVEIK
notes: It was captured by anti-human IgG Fc sensors; also called mAb 3G10; parental anti-PD-L1 mAb 3G10
For the molecule B2, in experiment [5], the Kd turned out to be 12.5 nM, the koff is 0.0122 s⁻¹ and the kon came out at 979000 M⁻¹ s⁻¹.

B3: PD-L1/EGFR FIT-Ig5 (bispecific antibody, human IgG1, kappa)
heavy: not shown
chain: QVQLVQSGAEVKKPGASVKVSCKASGYTFTDYGFSWVRQAPGQGLEWMGWITAYNGNTNYAQKLQGRVTMTTDTSTSTVYMELRSLRSDDTAVYYCARDYFYGMDVWGQGTTVTVSSASTKGPSVFPLAPSSKSTSGGTAALGCLVKDYFPEPVTVSWNSGALTSGVHTFPAVLQSSGLYSLSSVVTVPSSSLGTQTYICNVNHKPSNTKVDKKVEPKSC
light: not shown
notes: as for B1
In the case of B3, in experiment [3], the equilibrium dissociation constant (Kd) turned out to be 0.379 nM, the koff came to 6.14e-05 s⁻¹ and the kon amounted to 162000 M⁻¹ s⁻¹. In experiment [4], the Kd was found to be 11.1 nM, the koff amounted to 0.0156 s⁻¹ and the on-rate constant (kon) was determined as 1.4e+06 M⁻¹ s⁻¹.

In general, Kd refers to the free concentration of one partner at which half of the binding sites on the other are occupied at equilibrium, for simple one-to-one binding. For orientation: koff means the first-order rate constant of dissociation. The term kon denotes a measure of how fast the partners come together.

The values above are taken from US20220017617A1 (SHANGHAI EPIMAB BIOTHERAPEUTICS, published 2022).
